According to article PMC9482650, “Quantitative fragmentomics allow affinity mapping of interactomes” (Nature Communications, 2022):

Experiments:
Assay in all cases: holdup assay
Settings in all cases: plain residues with an end cap or a label only (N-terminal biotin on a linker: (peg)3)
PTPN13_4, Q12923 = target: T1, PTPN13_4, Q12923
T1 sequence (Q12923 1783-1878, limits assumed, looked up): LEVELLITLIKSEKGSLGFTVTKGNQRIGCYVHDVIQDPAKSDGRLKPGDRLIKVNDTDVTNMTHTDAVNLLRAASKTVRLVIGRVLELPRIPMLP

PDLIM3, Q53GG5 = target: T2, PDLIM3, Q53GG5
T2 sequence (Q53GG5 1-94, limits assumed, looked up): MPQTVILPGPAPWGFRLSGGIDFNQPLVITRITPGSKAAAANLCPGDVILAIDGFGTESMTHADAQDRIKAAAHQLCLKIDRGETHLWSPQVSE

MPDZ_6, O75970 = target: T3, MPDZ_6, O75970
T3 sequence (O75970 1003-1099, limits assumed, looked up): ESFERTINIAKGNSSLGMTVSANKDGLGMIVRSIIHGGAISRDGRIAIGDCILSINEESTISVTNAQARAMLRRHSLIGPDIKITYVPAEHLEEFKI

GRIP2_2, Q9C0E4 = target: GRIP2_2, Q9C0E4
Sequence of GRIP2_2, Q9C0E4 (Q9C0E4 137-245): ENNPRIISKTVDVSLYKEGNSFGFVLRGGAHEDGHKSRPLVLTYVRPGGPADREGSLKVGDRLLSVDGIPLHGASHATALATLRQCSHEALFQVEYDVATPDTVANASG

PREX2_2, Q70Z35 = target: T4, PREX2_2, Q70Z35
T4 sequence (Q70Z35 672-764, limits assumed, looked up): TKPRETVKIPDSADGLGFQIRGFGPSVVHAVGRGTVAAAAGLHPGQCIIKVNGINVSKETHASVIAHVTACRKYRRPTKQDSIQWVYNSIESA

MAGI1_6, Q96QZ7 = target: MAGI1_6, Q96QZ7
Sequence of MAGI1_6, Q96QZ7 (Q96QZ7 1146-1238): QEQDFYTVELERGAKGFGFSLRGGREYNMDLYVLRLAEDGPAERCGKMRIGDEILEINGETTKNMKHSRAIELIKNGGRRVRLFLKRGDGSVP

MAGI3_4, Q5TCQ9 = target: MAGI3_4, Q5TCQ9
Sequence of MAGI3_4, Q5TCQ9 (Q5TCQ9 716-815): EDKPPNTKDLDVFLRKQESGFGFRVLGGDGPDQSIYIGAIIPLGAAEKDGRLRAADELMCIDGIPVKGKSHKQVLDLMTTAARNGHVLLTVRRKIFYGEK

DVL2, O14641 = target: DVL2, O14641
Sequence of DVL2, O14641 (O14641 260-359): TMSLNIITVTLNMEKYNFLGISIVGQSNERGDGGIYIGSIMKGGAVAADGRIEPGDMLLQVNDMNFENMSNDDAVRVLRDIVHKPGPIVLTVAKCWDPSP

PARD6B, Q9BYG5 = target: T5, PARD6B, Q9BYG5
T5 sequence (Q9BYG5 152-260, limits assumed, looked up): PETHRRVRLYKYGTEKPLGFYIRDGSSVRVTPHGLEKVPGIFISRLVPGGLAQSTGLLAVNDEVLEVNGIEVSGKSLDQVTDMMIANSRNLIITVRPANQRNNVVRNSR

PDZD7_1, Q9H5P4 = target: T6, PDZD7_1, Q9H5P4
T6 sequence (Q9H5P4 81-178, limits assumed, looked up): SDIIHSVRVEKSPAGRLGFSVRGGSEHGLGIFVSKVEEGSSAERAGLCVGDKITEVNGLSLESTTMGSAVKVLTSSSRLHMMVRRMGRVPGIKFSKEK

PDLIM4, P50479 = target: PDLIM4, P50479
Sequence of PDLIM4, P50479 (P50479 1-83): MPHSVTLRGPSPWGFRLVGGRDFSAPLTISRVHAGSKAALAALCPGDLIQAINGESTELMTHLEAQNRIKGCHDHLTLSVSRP

NHERF3_2, Q5T2W1 = target: T7, NHERF3_2, Q5T2W1
T7 sequence (Q5T2W1 129-225, limits assumed, looked up): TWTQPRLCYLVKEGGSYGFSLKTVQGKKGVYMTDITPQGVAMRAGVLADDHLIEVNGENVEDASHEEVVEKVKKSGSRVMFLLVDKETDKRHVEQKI

MPDZ_11, O75970 = target: T8, MPDZ_11, O75970
T8 sequence (O75970 1720-1817, limits assumed, looked up): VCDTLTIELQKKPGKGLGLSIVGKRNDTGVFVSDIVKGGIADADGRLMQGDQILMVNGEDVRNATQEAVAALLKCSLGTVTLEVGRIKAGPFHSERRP

RGS12, O14924 = target: T9, RGS12, O14924
T9 sequence (O14924 17-108, limits assumed, looked up): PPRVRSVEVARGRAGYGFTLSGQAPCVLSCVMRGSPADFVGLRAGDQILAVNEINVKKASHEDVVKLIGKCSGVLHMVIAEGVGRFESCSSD

MPDZ_7, O75970 = target: T10, MPDZ_7, O75970
T10 sequence (O75970 1146-1253, limits assumed, looked up): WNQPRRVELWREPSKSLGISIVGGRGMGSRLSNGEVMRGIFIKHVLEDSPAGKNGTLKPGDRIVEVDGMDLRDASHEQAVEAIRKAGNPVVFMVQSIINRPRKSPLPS

SHROOM2, Q13796 = target: T11, SHROOM2, Q13796
T11 sequence (Q13796 21-118, limits assumed, looked up): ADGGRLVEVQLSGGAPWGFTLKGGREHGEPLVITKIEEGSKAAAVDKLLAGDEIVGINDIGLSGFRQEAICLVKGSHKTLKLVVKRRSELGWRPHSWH

MPP1, Q00013 = target: T12, MPP1, Q00013
T12 sequence (Q00013 66-162, limits assumed, looked up): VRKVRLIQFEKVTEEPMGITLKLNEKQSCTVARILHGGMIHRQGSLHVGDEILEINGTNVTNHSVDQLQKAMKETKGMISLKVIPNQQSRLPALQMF

PARD3_1, Q8TEW0 = target: PARD3_1, Q8TEW0
Sequence of PARD3_1, Q8TEW0 (Q8TEW0 264-372): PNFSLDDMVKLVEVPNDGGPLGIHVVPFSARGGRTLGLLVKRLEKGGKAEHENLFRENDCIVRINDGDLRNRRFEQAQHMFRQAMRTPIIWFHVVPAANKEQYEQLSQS

MAGI1_4, Q96QZ7 = target: MAGI1_4, Q96QZ7
Sequence of MAGI1_4, Q96QZ7 (Q96QZ7 other isoform, or with tags, fused parts or gaps): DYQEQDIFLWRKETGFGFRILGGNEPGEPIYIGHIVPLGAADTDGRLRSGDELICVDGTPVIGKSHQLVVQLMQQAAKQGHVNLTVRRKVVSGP

TJP3_1, O95049 = target: T13, TJP3_1, O95049
T13 sequence (O95049 6-103, limits assumed, looked up): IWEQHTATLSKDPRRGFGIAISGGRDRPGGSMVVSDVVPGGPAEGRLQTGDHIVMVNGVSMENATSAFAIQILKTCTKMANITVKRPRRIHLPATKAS

PARD3B_3, Q8TEW8 = target: PARD3B_3, Q8TEW8
Sequence of PARD3B_3, Q8TEW8 (Q8TEW8 490-594): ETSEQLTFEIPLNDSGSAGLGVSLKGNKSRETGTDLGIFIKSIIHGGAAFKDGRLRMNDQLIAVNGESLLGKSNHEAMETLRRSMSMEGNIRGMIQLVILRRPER

USH1C_3, Q9Y6N9 = target: T14, USH1C_3, Q9Y6N9
T14 sequence (Q9Y6N9 447-547, limits assumed, looked up): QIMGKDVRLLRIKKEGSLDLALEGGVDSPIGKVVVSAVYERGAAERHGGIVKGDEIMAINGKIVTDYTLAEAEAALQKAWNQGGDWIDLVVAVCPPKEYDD

Measured: pKd

NLNSSEGVPDLLV [SARS-CoV-E, P59637]
3.79: PARD3_1, Q8TEW0
4.64: PTPN13_4, Q12923
below the threshold: all other assays above
